Experimental data published in the supplement of paper PMC10065799, “High-throughput profiling of sequence recognition by tyrosine kinases and SH2 domains using bacterial peptide display” (eLife, 2023).
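Note: peptide library displayed on the E. coli surface as eCPX fusions, selected cells deep-sequenced, score is each peptide's frequency after selection divided by its frequency in the input.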

What follows are sequences tested against c-Src SH2 (assay: SH2 binding enrichment of the phosphorylated peptide, bacterial display (enrichment ratio); higher = better substrate or ligand; peptides without Tyr show the background).
In the case of AKFPSYEKNKK [FOXL2_Y91_F90S], the SH2 binding enrichment is reported as 0.615.
With ETLLYYGCRRS [POR_Y564] the SH2 binding enrichment was 0.466.
With QTEAPYRFIFM [PTPN11_Y511_Q510P_YF] the SH2 binding enrichment was 0.367.
SFPSYYTSHVQ [NEFL_Y443] was tested, and the SH2 binding enrichment was 0.877.
With CKRQFYLYKGK [RSPO4_Y112] the SH2 binding enrichment was 0.856.
MKGEFYRFLAE [YWHAG_Y131_D129E_YF] gave an SH2 binding enrichment of 0.351.
In the case of QTWKTYVRHQQ [SFI1_Y164_Q167H], the SH2 binding enrichment is reported as 0.784.
For KPGVNYYFQVS, the SH2 binding enrichment was 1.3.
KNRDVSSSDYF [USP24_Y2134_Y2134S] showed an SH2 binding enrichment of 0.523.
For YSIDYYRVGGH [NTRK2_Y707_T704I], the SH2 binding enrichment was 1.44.
Sequence EVVGRYSVHFA [MLH1_Y183_N187Y_YF] has an SH2 binding enrichment of 0.532.
DRLPSYLDKVR [KRT12_Y139_A137P] was tested, and the SH2 binding enrichment was 0.671.
Sequence VDTFWYKLLKR [EPM2A_Y86_F88L] has an SH2 binding enrichment of 0.646.
For PEADKYRLPYA [FGG_Y300_T303P], the SH2 binding enrichment was 0.402.
With LAVNPYGPPDP the SH2 binding enrichment was 0.528.
CTLLPYYSARV [DGKE_Y269] gave an SH2 binding enrichment of 1.81.
With FVKEPYIQSRF [HIPK4_Y175_YF] the SH2 binding enrichment was 0.509.
For EKKKKYMLPLD [DNM2_Y563_E560K], the SH2 binding enrichment was 0.522.
SHTPSYCDEWL [RITA1_Y109_S113W] gave an SH2 binding enrichment of 0.97.
Sequence GKPENYRRLDI [VHL_Y175_V170G] has an SH2 binding enrichment of 0.508.
For NKYVAYIESQG [KDM4B_Y34], the SH2 binding enrichment was 0.676.
With VNTMLYEKFTF [TEK_Y1108_T1106M_YF] the SH2 binding enrichment was 0.71.
GFILMYDITNK [RAB3C_Y110_E115K] showed an SH2 binding enrichment of 0.5.
Work on RHSGSYFVTSV [APC_Y2838_L2839F] yielded an SH2 binding enrichment of 0.547.
For FRASFYRKGGC [ALK_Y1283_YF], the SH2 binding enrichment was 0.499.
With SLFQFYFQQKG [CHKB_Y381_R377L] the SH2 binding enrichment was 1.02.
Work on LWKWRYEELKE [CCDC102B_Y299_K298R] yielded an SH2 binding enrichment of 2.08.
KPRKPYTIKKP [BRD2_Y715] gave an SH2 binding enrichment of 1.9.
With GEFFRYLAEVA [YWHAG_Y133_D129E_YF] the SH2 binding enrichment was 0.454.
NLMPAYHKCIQ [CYP21A2_Y190_Y191H] showed an SH2 binding enrichment of 0.65.
GESQGYDIMEP [MSH2_Y863] gave an SH2 binding enrichment of 5.63.
KFSNQYKATIG [RAB7A_Y37] was tested, and the SH2 binding enrichment was 0.656.

Each sequence was assayed against Grb2 SH2 (UniProt P62993) in the same assay as above.
Chain of Grb2 SH2 (P62993 whole entry, looked up): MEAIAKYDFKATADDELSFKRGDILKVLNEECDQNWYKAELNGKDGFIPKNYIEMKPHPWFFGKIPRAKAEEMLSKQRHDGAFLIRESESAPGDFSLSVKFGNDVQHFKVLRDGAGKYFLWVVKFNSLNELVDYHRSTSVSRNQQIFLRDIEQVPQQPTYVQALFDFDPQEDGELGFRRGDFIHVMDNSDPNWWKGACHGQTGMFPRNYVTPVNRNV
Sequence AKFPSYEKNKK [FOXL2_Y91_F90S] has an SH2 binding enrichment of 0.907.
With ETLLYYGCRRS [POR_Y564] the SH2 binding enrichment was 0.712.
QTEAPYRFIFM [PTPN11_Y511_Q510P_YF] showed an SH2 binding enrichment of 0.662.
SFPSYYTSHVQ [NEFL_Y443] gave an SH2 binding enrichment of 1.18.
Sequence CKRQFYLYKGK [RSPO4_Y112] has an SH2 binding enrichment of 1.84.
Sequence MKGEFYRFLAE [YWHAG_Y131_D129E_YF] has an SH2 binding enrichment of 0.712.
Work on QTWKTYVRHQQ [SFI1_Y164_Q167H] yielded an SH2 binding enrichment of 1.38.
KPGVNYYFQVS was tested, and the SH2 binding enrichment was 1.01.
In the case of KNRDVSSSDYF [USP24_Y2134_Y2134S], the SH2 binding enrichment is reported as 0.921.
With YSIDYYRVGGH [NTRK2_Y707_T704I] the SH2 binding enrichment was 0.832.
EVVGRYSVHFA [MLH1_Y183_N187Y_YF] gave an SH2 binding enrichment of 0.909.
DRLPSYLDKVR [KRT12_Y139_A137P] gave an SH2 binding enrichment of 0.94.
VDTFWYKLLKR [EPM2A_Y86_F88L] showed an SH2 binding enrichment of 1.04.
Sequence PEADKYRLPYA [FGG_Y300_T303P] has an SH2 binding enrichment of 0.741.
Sequence LAVNPYGPPDP has an SH2 binding enrichment of 0.934.
CTLLPYYSARV [DGKE_Y269] gave an SH2 binding enrichment of 0.74.
FVKEPYIQSRF [HIPK4_Y175_YF] was tested, and the SH2 binding enrichment was 0.942.
Sequence EKKKKYMLPLD [DNM2_Y563_E560K] has an SH2 binding enrichment of 0.762.
Sequence SHTPSYCDEWL [RITA1_Y109_S113W] has an SH2 binding enrichment of 1.19.
In the case of GKPENYRRLDI [VHL_Y175_V170G], the SH2 binding enrichment is reported as 0.755.
For NKYVAYIESQG [KDM4B_Y34], the SH2 binding enrichment was 0.755.
VNTMLYEKFTF [TEK_Y1108_T1106M_YF] gave an SH2 binding enrichment of 1.01.
Work on GFILMYDITNK [RAB3C_Y110_E115K] yielded an SH2 binding enrichment of 0.944.
Sequence RHSGSYFVTSV [APC_Y2838_L2839F] has an SH2 binding enrichment of 0.787.
FRASFYRKGGC [ALK_Y1283_YF] was tested, and the SH2 binding enrichment was 0.616.
Sequence SLFQFYFQQKG [CHKB_Y381_R377L] has an SH2 binding enrichment of 1.58.
In the case of LWKWRYEELKE [CCDC102B_Y299_K298R], the SH2 binding enrichment is reported as 1.29.
For KPRKPYTIKKP [BRD2_Y715], the SH2 binding enrichment was 1.85.
For GEFFRYLAEVA [YWHAG_Y133_D129E_YF], the SH2 binding enrichment was 0.924.
NLMPAYHKCIQ [CYP21A2_Y190_Y191H] gave an SH2 binding enrichment of 0.878.
GESQGYDIMEP [MSH2_Y863] showed an SH2 binding enrichment of 0.683.
In the case of KFSNQYKATIG [RAB7A_Y37], the SH2 binding enrichment is reported as 0.948.

These sequences were tested against SHP2-C SH2 in the same assay as above.
For AKFPSYEKNKK [FOXL2_Y91_F90S], the SH2 binding enrichment was 0.894.
